Measured values from patent US20220249679A1, “BI-SPECIFIC BINDING AGENTS TARGETING SYNDECAN-1 AND FIBROBLAST GROWTH FACTOR RECEPTOR” (Mitsubishi Tanabe Pharma Corporation, priority 2018, published 2022).
Several values for one entry are separate records, joined by “and”; a condition that tells them apart may be missing. Identical values can stand only once.

Legend:
Human CD138 His (human) [1] = target: Human CD138 His (human) (UniProt P18827); assay: SPR, summary table
Human CD138 His (human) [2] = target: Human CD138 His (human) (UniProt P18827); assay: SPR (BioRad Proteon), CD138 His immobilized, bivalent analyte fit

Sequence of Human CD138 His (human) (P18827 23-254 limits assumed): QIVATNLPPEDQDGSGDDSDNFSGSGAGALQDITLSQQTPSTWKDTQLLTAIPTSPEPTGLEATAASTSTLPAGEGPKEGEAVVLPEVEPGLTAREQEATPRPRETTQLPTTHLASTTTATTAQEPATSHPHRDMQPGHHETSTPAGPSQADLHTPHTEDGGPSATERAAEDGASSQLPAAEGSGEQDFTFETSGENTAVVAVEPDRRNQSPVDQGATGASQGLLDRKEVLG

- Kd (Human CD138 His (human) [1]): 2 nM
- Kd (Human CD138 His (human) [2]): 1.95 nM and 2 nM
- koff (Human CD138 His (human) [2]): 0.000666 s⁻¹
- kon (Human CD138 His (human) [2]): 342000 M⁻¹ s⁻¹
Substance: mBT062 (antibody)
